Experimental data published in the supplement of paper PMC10201428.
± gives the standard deviation of the averaged measurements.

B1: library; a variant is named by its letters at N, in order (parent)
chain: AATGTTGTTGATGCAACCATAAAGTGATATTTAATAATTATTTATAATCAGCAACTTAACCACAAAACAACCATATATTGATATNTCACAAAACAACCATAANTTGATATTTTTGTGAATCGAGTATTTCAGCAAAACTACTGCAGTAAGAA

Experiments:
[1] = variants of: B1; test: relative integration efficiency (T-LR orientation) vs wild-type transposon end (log2 (normalized fold change)); transposon end mutated: left end; higher = more efficient transposition; conditions: with VchCAST RNA-guided transposition machinery (E. coli BL21(DE3) host, lacZ target)
Description: (§1)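 Pooled, barcoded VchCAST (Tn6677) mini-transposon donor libraries; each variable transposon-end sequence sits in a fixed pDonor mini-transposon context (10-bp barcode and cargo not included). Left- or right-end libraries were co-transformed with pEffector (TniQ-Cascade, TnsABC, lacZ crRNA, T7, 0.1 mM IPTG) into E. coli BL21(DE3) and grown 18 h at 37 C. T-LR and T-RL junction amplicons were sequenced; output/input barcode fold change was normalised to the mean of four wild-type barcodes and log2-transformed. Two biological replicates; zero-count/undetected variants carry floor values (-10 / -15), censored here. Barcode uncoupling by PCR recombination adds noise.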

[2] = variants of: B1; test: relative integration efficiency (T-RL orientation) vs wild-type transposon end (log2 (normalized fold change)); transposon end mutated: left end; higher = more efficient transposition; conditions: with VchCAST RNA-guided transposition machinery (E. coli BL21(DE3) host, lacZ target)
Description: as §1

AATGTTGTTGATGCAACCATAAAGTGATATTTAATAATTATTTATAATCAGCAACTTAACCACAAAACACCCATAAATTGATATTGCACAAAACACCCATAAATTGATAATTATGTGAATCGAGTATTTCAGCAAAACTACTGCAGTAAGAA [TA A70C T76A T86G A96C T110A T113A]
relative integration efficiency (log2) [1]: -0.0134 ± 0.035
relative integration efficiency (log2) [2]: -0.255 ± 0.15

AATGTTGTTGATGCAACCATAAAGTGATATTTAATAATTATTTATAATCAGCAACTTAACCACAAAACACCCATAAATTGATAATTAACAAAACAACCATATATTGATATCTCTGTGAATCGAGTATTTCAGCAAAACTACTGCAGTAAGAA [TA A70C T76A T84A C87A A102T T111C T113C]
relative integration efficiency (log2) [1]: 0.619 ± 0.14
relative integration efficiency (log2) [2]: 0.128 ± 0.4

AATGTTGTTGATGCAACCATAAAGTGATATTTAATAATTATTTATAATCAGCAACTTAACCACAAAACACCCATAAATTGATATTGCACAAAACAACCATAAAGTGATATTTATGTGAATCGAGTATTTCAGCAAAACTACTGCAGTAAGAA [TA A70C T76A T86G T104G T113A]
relative integration efficiency (log2) [1]: 0.359 ± 0.88
relative integration efficiency (log2) [2]: -0.145 ± 0.22

AATGTTGTTGATGCAACCATAAGTTGATATTTTATAATTATTTATAATCAGCAACTTAACCACAAAACAACCATATATTGATATCTCACAAAACAACCATAAAGTGATATTTATGTGAATCGAGTATTTCAGCAAAACTACTGCAGTAAGAA [CA A23G G24T A33T T104G T113A]
relative integration efficiency (log2) [1]: 0.0933 ± 0.62
relative integration efficiency (log2) [2]: -0.0946 ± 0.2

AATGTTGTTGATGCAACCATAAAGTGATATTTAATAATTATTTATAATCAGCAACTTAACCACAAAACACCCATAAATTGATAATTAACAAAACAACCATAAAATGATAATTATGTGAATCGAGTATTTCAGCAAAACTACTGCAGTAAGAA [TA A70C T76A T84A C87A T104A T110A T113A]
relative integration efficiency (log2) [1]: 0.319 ± 0.13
relative integration efficiency (log2) [2]: -0.146 ± 0.28

AATGTTGTTGATGCAACCATAAGTTGATATTTTATAATTATTTATAATCAGCAACTTAACCACAAAACAACCATAAAGTGATATTTAACAAAACAACCATAAAATGATAATTATGTGAATCGAGTATTTCAGCAAAACTACTGCAGTAAGAA [TA A23G G24T A33T T76A T78G C87A T104A T110A T113A]
relative integration efficiency (log2) [1]: 0.283 ± 0.28
relative integration efficiency (log2) [2]: 0.0976 ± 0.22

AATGTTGTTGATGCAACCATAAAGTGATATTTAATAATTATTTATAATCAGCAACTTAACCACAAAACAACCATATATTGATATCTCACAAAACAACCATATATTGATATCTCTGTGAATCGAGTATTTCAGCAAAACTACTGCAGTAAGAA [CA A102T T111C T113C]
relative integration efficiency (log2) [1]: 0.118 ± 0.59
relative integration efficiency (log2) [2]: -0.254 ± 0.41

AATGTTGTTGATGCAACCATAAAGTGATATTTAATAATTATTTATAATCAGCAACTTAACCACAAAACACCCATAAATTGATAATTAACAAAACACCCATAAATTGATATTGCTGTGAATCGAGTATTTCAGCAAAACTACTGCAGTAAGAA [TA A70C T76A T84A C87A A96C T112G T113C]
relative integration efficiency (log2) [1]: -0.389 ± 0.085
relative integration efficiency (log2) [2]: -0.122 ± 0.12

AATGTTGTTGATGCAACCATAAAGTGATATTTAATAATTATTTATAATCAGCAACTTAACCACAAAACACCCATAAATTGATATTGCACAAAACACCCATAAATTGATATTGCTGTGAATCGAGTATTTCAGCAAAACTACTGCAGTAAGAA [TA A70C T76A T86G A96C T112G T113C]
relative integration efficiency (log2) [1]: 0.367 ± 0.4
relative integration efficiency (log2) [2]: -0.132 ± 0.23

AATGTTGTTGATGCAACCATAAAGTGATATTTAATAATTATTTATAATCAGCAACTTAACCACAAAACACCCATAAATTGATATTGCACAAAACAACCATATATTGATATCTCTGTGAATCGAGTATTTCAGCAAAACTACTGCAGTAAGAA [TA A70C T76A T86G A102T T111C T113C]
relative integration efficiency (log2) [1]: -0.561 ± 0.29
relative integration efficiency (log2) [2]: -0.418 ± 0.19

AATGTTGTTGATGCAACCATAAGTTGATATTTTATAATTATTTATAATCAGCAACTTAACCACAAAACAACCATAAAGTGATATTTAACAAAACAACCATATATTGATATCTCTGTGAATCGAGTATTTCAGCAAAACTACTGCAGTAAGAA [TA A23G G24T A33T T76A T78G C87A A102T T111C T113C]
relative integration efficiency (log2) [1]: -0.451 ± 0.41
relative integration efficiency (log2) [2]: -0.227 ± 0.17

AATGTTGTTGATGCAACCATAAAATGATAATTAATAATTATTTATAATCAGCAACTTAACCACAAAACACCCATAAATTGATAATTAACAAAACACCCATAAATTGATAATTATGTGAATCGAGTATTTCAGCAAAACTACTGCAGTAAGAA [TA G24A T30A A70C T76A T84A C87A A96C T110A T113A]
relative integration efficiency (log2) [1]: 0.37 ± 0.55
relative integration efficiency (log2) [2]: 0.271 ± 0.25

AATGTTGTTGATGCAACCATAAGTTGATATTTTATAATTATTTATAATCAGCAACTTAACCACAAAACAACCATAAAGTGATATTTAACAAAACAACCATAAAGTGATATTTATGTGAATCGAGTATTTCAGCAAAACTACTGCAGTAAGAA [TA A23G G24T A33T T76A T78G C87A T104G T113A]
relative integration efficiency (log2) [1]: 0.453 ± 0.52
relative integration efficiency (log2) [2]: -0.0355 ± 0.21

AATGTTGTTGATGCAACCATAAAGTGATATTTAATAATTATTTATAATCAGCAACTTAACCACAAAACACCCATAAATTGATAATTAACAAAACACCCATAAATTGATAATTATGTGAATCGAGTATTTCAGCAAAACTACTGCAGTAAGAA [TA A70C T76A T84A C87A A96C T110A T113A]
relative integration efficiency (log2) [1]: 0.233 ± 0.15
relative integration efficiency (log2) [2]: 0.0312 ± 0.25

AATGTTGTTGATGCAACCATAAAGTGATATTTAATAATTATTTATAATCAGCAACTTAACCACAAAACACCCATAAATTGATATTGCACAAAACAACCATAAAATGATAATTATGTGAATCGAGTATTTCAGCAAAACTACTGCAGTAAGAA [TA A70C T76A T86G T104A T110A T113A]
relative integration efficiency (log2) [1]: 0.0387 ± 0.67
relative integration efficiency (log2) [2]: -0.344 ± 0.23

AATGTTGTTGATGCAACCATAAAGTGATATTTAATAATTATTTATAATCAGCAACTTAACCACAAAACAACCATATATTGATATCTCACAAAACACCCATAAATTGATAATTATGTGAATCGAGTATTTCAGCAAAACTACTGCAGTAAGAA [CA A96C T110A T113A]
relative integration efficiency (log2) [1]: 0.444 ± 0.43
relative integration efficiency (log2) [2]: 0.00902 ± 0.34

AATGTTGTTGATGCAACCATAAAGTGATATTTAATAATTATTTATAATCAGCAACTTAACCACAAAACACCCATAAATTGATAATTAACAAAACAACCATAAAGTGATATTTATGTGAATCGAGTATTTCAGCAAAACTACTGCAGTAAGAA [TA A70C T76A T84A C87A T104G T113A]
relative integration efficiency (log2) [1]: 0.771 ± 0.098
relative integration efficiency (log2) [2]: 0.69 ± 0.33

AATGTTGTTGATGCAACCATAAAGTGATATTTAATAATTATTTATAATCAGCAACTTAACCACAAAACAACCATATATTGATATCTCACAAAACACCCATAAATTGATATTGCTGTGAATCGAGTATTTCAGCAAAACTACTGCAGTAAGAA [CA A96C T112G T113C]
relative integration efficiency (log2) [1]: -0.564 ± 0.17
relative integration efficiency (log2) [2]: -0.326 ± 0.1

AATGTTGTTGATGCAACCATAAGTTGATATTTTATAATTATTTATAATCAGCAACTTAACCACAAAACAACCATATATTGATATCTCACAAAACAACCATAAAATGATAATTATGTGAATCGAGTATTTCAGCAAAACTACTGCAGTAAGAA [CA A23G G24T A33T T104A T110A T113A]
relative integration efficiency (log2) [1]: -0.166 ± 0.3
relative integration efficiency (log2) [2]: -0.424 ± 0.22
